The text below walks through data of US20260275324A1, “UNNATURAL AMINO ACID IN CELLULO SYNTHESIS FOR SITE-SPECIFIC PROTEIN MODIFICATION” (The Chinese University of Hong Kong, priority 2023, published 2026).

Assay [1] concerns the target CDK4 of MCF-7 cells (endogenous) (UniProt P11802). Nature of the assay: cell-based or functional assay.
The target in the next assay is α-synuclein (Homo sapiens, UniProt P37840). Particulars: in vitro and in vivo, Liang et al. 2021; cited from earlier work.
Assay [2] deals with GST-CDK4 (Sino Biological) (UniProt P11802). Nature of the assay: microscale thermophoresis (MST); Alexa Fluor 647-labelled MBP-cycP16p at 70 nM, GST-CDK4 titrated from 1.92 µM. (In general: In MST a laser heats a spot of the sample, and binding alters the fluorescence response.)
Chain of GST-CDK4 (Sino Biological) (P11802 whole entry): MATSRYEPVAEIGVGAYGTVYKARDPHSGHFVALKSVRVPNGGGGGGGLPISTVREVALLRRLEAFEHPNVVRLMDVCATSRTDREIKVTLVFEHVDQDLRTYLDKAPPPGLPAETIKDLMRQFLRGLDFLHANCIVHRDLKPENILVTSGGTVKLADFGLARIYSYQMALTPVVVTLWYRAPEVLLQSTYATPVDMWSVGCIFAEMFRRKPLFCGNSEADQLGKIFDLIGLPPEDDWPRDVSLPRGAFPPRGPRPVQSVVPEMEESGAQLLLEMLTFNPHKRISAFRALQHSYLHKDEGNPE
The target is the same in assay [3]. Nature of the assay: microscale thermophoresis (MST), against linear MBP-P16p as reference.

Chain of cycRGD-mCh-cycP16p (bifunctional bicyclic protein) (P42771 83-103): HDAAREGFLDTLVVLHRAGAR

For the substance “R9-P16p (linear P16p fused to the poly-arginine cell penetrating sequence; Pepmic) (from UniProt P42771 84-103) (peptide)”, in assay [1], the percent of MCF-7 cells arrested at G0/G1 phase (flow cytometry, 15 µM, 24 h) was 60.7%. For “cycRGD-mCh-cycP16p (bifunctional bicyclic protein) (from UniProt P42771 83-103)”, in assay [1], the percent of MCF-7 cells arrested at G0/G1 at 72 h (time course) worked out at 88% and the percent of MCF-7 cells arrested at G0/G1 phase (flow cytometry, 15 µM, 24 h) was 76.7%. In the case of “SUMOmini2: earlier linear version of SUMO1 peptide (15-55), Liang et al.”, in the assay with α-synuclein, the “inhibition of α-synuclein aggregation” value is “effectively inhibit α-synuclein aggregation in vitro and in vivo”. For orientation: Kd means the concentration at which binding is half-saturated. On to “MBP-cycP16p (cyclized MBP-P16p protein) (from UniProt P0AEX9 27-392; P42771 83-103)”, for which, in assay [2], the Kd turned out to be 0.0277 µM. The same substance yielded a fold higher binding affinity compared to its linear counterpart MBP-P16p in assay [3] of 4 fold.

Substance “cycRGD-mCh-P16p (cycRGD-mCherry bearing linear uncyclized P16p) (from UniProt P42771 83-103)” had a percent of MCF-7 cells arrested at G0/G1 phase (flow cytometry, 15 µM, 24 h) in assay [1] of 46.7%.
